Values belong to the sequence of their own block, whether it stands above or below them.
Legend:
[1] = target: HLA-B*53:01; assay: IEDB peptide-MHC binding, purified MHC/competitive/radioactivity; filed as Kd, often an IC50 or EC50 that approximates it; ≥ and ≤ were set here for values at or beyond the usual limits of such assays; settings: source organism: Dengue virus 3 Martinique/1243/1999
[2] = target: HLA-B*57:01; assay: as above
[3] = target: HLA-B*15:42; assay: IEDB peptide-MHC binding, purified MHC/competitive/fluorescence; filed as Kd, often an IC50 or EC50 that approximates it; ≥ and ≤ were set here for values at or beyond the usual limits of such assays
[4] = target: HLA-B*83:01; assay: as above
[5] = target: HLA-B*45:06; assay: as above
[6] = target: HLA-A*68:02; assay: IEDB peptide-MHC binding, purified MHC/competitive/radioactivity; filed as Kd, often an IC50 or EC50 that approximates it; ≥ and ≤ were set here for values at or beyond the usual limits of such assays
[7] = target: HLA-B*58:01; assay: as above
[8] = target: HLA-A*01:01; assay: as above; settings: source organism: Dengue virus 4 Philippines/H241/1956
[9] = target: HLA-B*40:01; assay: IEDB peptide-MHC binding, purified MHC/competitive/fluorescence; filed as Kd, often an IC50 or EC50 that approximates it; ≥ and ≤ were set here for values at or beyond the usual limits of such assays
[10] = target: HLA-B*15:01; assay: as above; settings: source organism: Escherichia coli O139:H28 str. E24377A
[11] = target: HLA-B*07:02; assay: IEDB peptide-MHC binding, purified MHC/direct/fluorescence; filed as Kd, often an IC50 or EC50 that approximates it; ≥ and ≤ were set here for values at or beyond the usual limits of such assays; settings: source organism: West Nile virus
[12] = target: HLA-A*11:01; assay: as above; settings: source organism: West Nile virus
[13] = target: HLA-B*27:05; assay: as above; settings: source organism: West Nile virus
[14] = target: HLA-A*03:01; assay: as above; settings: source organism: West Nile virus
[15] = target: HLA-B*58:01; assay: as above; settings: source organism: West Nile virus
[16] = target: HLA-A*01:01; assay: as above; settings: source organism: West Nile virus
[17] = target: HLA-B*18:01; assay: as above; settings: source organism: West Nile virus
[18] = target: HLA-B*57:01; assay: as above; settings: source organism: West Nile virus
[19] = target: HLA-B*46:01; assay: as above; settings: source organism: West Nile virus
[20] = target: HLA-B*15:01; assay: as above; settings: source organism: West Nile virus
[21] = target: HLA-B*44:02; assay: as above; settings: source organism: West Nile virus
[22] = target: HLA-B*48:01; assay: as above; settings: source organism: West Nile virus
[23] = target: HLA-A*02:01; assay: as above; settings: source organism: West Nile virus
[24] = source organism: Dengue virus 3 Martinique/1243/1999
[25] = source organism: human gammaherpesvirus 4
[26] = source organism: Dengue virus 4 Philippines/H241/1956
[27] = source organism: Yersinia pestis Nepal516

Sequence: TALFSGVSW
Kd [1]: 49.8 nM
Kd [2, 24]: 0.589 nM

Sequence: RPRPRTPEW
Kd [3, 25]: ≥ 5000 nM
Kd [4, 25]: 426 nM
Kd [5, 25]: ≥ 5000 nM

Sequence: ESSKNQTWQI
Kd [6, 26]: 701 nM
Kd [7, 26]: 1590 nM
Kd [8]: ≥ 70400 nM
Kd [2, 26]: ≥ 23000 nM

Sequence: AEIEDLIFL
Kd ([9]; source organism: Influenza A virus (A/swine/Italy/1509-6/97(H1N1))): 0.5 nM

Sequence: SASSMINGVV
Kd [6, 24]: 165 nM
Kd [7, 24]: 6380 nM
Kd [2, 24]: 1990 nM

Sequence: AEYLYADGI
Kd [3, 27]: ≥ 5000 nM
Kd [9, 27]: 4.3 nM
Kd [4, 27]: ≥ 5000 nM
Kd [5, 27]: ≥ 5000 nM

Sequence: ESWEEVPYLG
Kd ([7]; source organism: Dengue virus 2 Jamaica/1409/1983): 589 nM

Kd ([9]; source organism: Escherichia coli O139:H28 str. E24377A): 2.5 nM
Kd [10]: ≥ 20000 nM
Sequence: AENHFLVGL

Sequence: FTRYRKEAI
Kd [11]: ≥ 20000 nM
Kd [12]: ≥ 20000 nM
Kd [13]: ≥ 20000 nM
Kd [14]: ≥ 20000 nM
Kd [15]: ≥ 20000 nM
Kd [16]: ≥ 20000 nM
Kd [17]: ≥ 20000 nM
Kd [18]: ≥ 20000 nM
Kd [19]: ≥ 20000 nM
Kd [20]: ≥ 20000 nM
Kd [21]: ≥ 20000 nM
Kd [22]: ≥ 20000 nM
Kd [23]: ≥ 20000 nM

Sequence: ASGKLVTQW
Kd [7, 26]: 15.7 nM
Kd [2, 26]: 137 nM

Sequence: QELSDAPFL
Kd ([9]; source organism: Influenza A virus (A/Hokkaido/20/89(H3N2))): 2 nM

Sequence: GADTSEVHW
Kd [7, 26]: 66.3 nM
Kd [2, 26]: 987 nM

Sequence: QTQRSGVLW
Kd [7, 24]: 1.47 nM
Kd [2, 24]: 18.7 nM

Source: the Immune Epitope Database (IEDB)
